In patent publication US20230408517A1 (BIO TECHNE, published 2023):
Where a chain is given by its changes, count along the chain named. Like-named read-outs stand apart in the source and are kept apart here.

B1: 1035709 (antibody, V domains shown)
VH: EVQLQQSGPELVKPGASVKISCKTSGYTFTEYTMHWVKQSHGKSLEWIGGINPNIVDTGYNQKFKGKATLTVDKSSSTAYMELRSLTSEDSAVYYCARDGYPLYYAMDYWGQGTSVTVSS
VL: DIQMTQSPSSLSASLGERVSLTCRASQEISGYLSWLQQKPDGTIKRLIYAASTLDSGVPKRFSGSRSGSDYSLTISSLESEDFADYYCLQYASYPWTFGGGTKLEIK
B2: 1035762 (antibody, V domains shown)
VH: B1 VH with I55N, V56G, S88F
VL: B1 VL with S34C, G57A, Y86F
B3: 1035419 (antibody, V domains shown)
VH: QVQLKQSGAELVRPGASVKLSCKTSGYIFTSYWIHWIKQRSGQGLEWIARIYPGTGSTYNNEKFKGKATLTADKSSSTAYMQLSSLKSEDSAVYFCARGEDNLYFYAMDYWGQGTSVTVSS
VL: NIVLTQSPASLAVSLGQRATISCRASESVDSYGASFMHWCQQKPGQPPKLLIYLASNLESGVPARFSGSGSRTDFTLTIDPVEADDAATYYCQQNYEDPWTFGGGTKLEIK
B4: 1035740 (antibody, V domains shown)
VH: EVLLQQSGPELVKPGASVKIPCKASGYTFTDYNMDWVKQSHGKSLEWIGDINPNNGFTIYNQKFKGKATLTVDKSSSTAYMELRSLTSEDTAVYYCAREGYGNYFDYWGQGTTLTVSS
VL: DVLLTQSPAILSVSPGERVSFSCRASQSIGTSLHWYQQRTNGSPRLLIKYVSESISGIPSRFSGSGSGTDFTLSINSVESEDIADYYCQQSSSWPTTFGAGTKLELK

Assays:
[1] = target: rSARS2 RBD aa319-541, N439K, C-His (SARS-CoV-2, UniProt P0DTC2 319-541); experiment: flow cytometry, blocking of binding to hACE-2 cells
[2] = target: rSARS2-B.1.617.2 S aa16-1211 10+4x aa mut., C-His (SARS-CoV-2, UniProt P0DTC2 16-1211); experiment: as above
[3] = target: T1, BR P.1 variant RBD (R319-F541 with K417T, E484K, N501Y), C-terminal 6-His (SARS-CoV-2, UniProt P0DTC2 319-541); experiment: as above
[4] = target: rSARS2-B.1.1.7 S aa16-1211 2x aa mut., C-His (SARS-CoV-2, UniProt P0DTC2 16-1211); experiment: as above
[5] = target: T2, IN v2 variant RBD (R319-F541 with L452R, T478K) (SARS-CoV-2, UniProt P0DTC2 319-541); experiment: as above
[6] = target: rSARS2-B.1.1.7 S aa16-1211 4x aa mut., C-His (SARS-CoV-2, UniProt P0DTC2 16-1211); experiment: as above
[7] = target: T3, SA variant RBD (R319-F541 with K417N, E484K, N501Y), C-terminal 6-His (SARS-CoV-2, UniProt P0DTC2 319-541); experiment: sandwich dipstick, detector Ab5-AuNP
[8] = target: T4, recombinant SARS-CoV-2 spike S1 RBD (R319-F541), C-terminal 6-His (SARS-CoV-2, UniProt P0DTC2 319-541); experiment: sandwich dipstick, detector Ab5-AuNP
[9] = target: T5, UK variant RBD (R319-F541 with N501Y), C-terminal 6-His (SARS-CoV-2, UniProt P0DTC2 319-541); experiment: sandwich dipstick, detector Ab5-AuNP
[10] = target: T1, BR P.1 variant RBD (R319-F541 with …); experiment: sandwich dipstick, detector Ab5-AuNP
[11] = target: T3, SA variant RBD (R319-F541 with K417N, …); experiment: lateral flow NC50, RBD-AuNP vs immobilised ACE2
[12] = target: T4, recombinant SARS-CoV-2 spike S1 RBD …; experiment: lateral flow NC50, RBD-AuNP vs immobilised ACE2
[13] = target: T5, UK variant RBD (R319-F541 with N501Y), …; experiment: lateral flow NC50, RBD-AuNP vs immobilised ACE2
[14] = target: T1, BR P.1 variant RBD (R319-F541 with …); experiment: lateral flow NC50, RBD-AuNP vs immobilised ACE2
[15] = target: T4, recombinant SARS-CoV-2 spike S1 RBD …; experiment: flow cytometry, blocking of binding to hACE-2 cells
[16] = target: T3, SA variant RBD (R319-F541 with K417N, …); experiment: lateral flow NC50, RBD-AuNP vs immobilised ACE2; remark: listed apart in the source
[17] = target: L452R RBD (R319-F541 with L452R) (SARS-CoV-2, UniProt P0DTC2 319-541); experiment: lateral flow NC50, RBD-AuNP vs immobilised ACE2
[18] = target: T478K RBD (R319-F541 with T478K) (SARS-CoV-2, UniProt P0DTC2 319-541); experiment: lateral flow NC50, RBD-AuNP vs immobilised ACE2
[19] = target: T4, recombinant SARS-CoV-2 spike S1 RBD …; experiment: lateral flow NC50, RBD-AuNP vs immobilised ACE2; remark: listed apart in the source
[20] = target: T5, UK variant RBD (R319-F541 with N501Y), …; experiment: lateral flow NC50, RBD-AuNP vs immobilised ACE2; remark: listed apart in the source
[21] = target: BR P.2 variant RBD (R319-F541 with E484K) (SARS-CoV-2, UniProt P0DTC2 319-541); experiment: lateral flow NC50, RBD-AuNP vs immobilised ACE2
[22] = target: IN v1 variant RBD (R319-F541 with L452R, E484Q) (SARS-CoV-2, UniProt P0DTC2 319-541); experiment: lateral flow NC50, RBD-AuNP vs immobilised ACE2
[23] = target: T1, BR P.1 variant RBD (R319-F541 with …); experiment: lateral flow NC50, RBD-AuNP vs immobilised ACE2; remark: listed apart in the source
[24] = target: K417E RBD (R319-F541 with K417E) (SARS-CoV-2, UniProt P0DTC2 319-541); experiment: lateral flow NC50, RBD-AuNP vs immobilised ACE2
[25] = target: T2, IN v2 variant RBD (R319-F541 with …); experiment: lateral flow NC50, RBD-AuNP vs immobilised ACE2
[26] = target: T4, recombinant SARS-CoV-2 spike S1 RBD …; experiment: flow cytometry, blocking of binding to hACE-2 cells; remark: listed apart in the source
[27] = target: T3, SA variant RBD (R319-F541 with K417N, …); experiment: sandwich dipstick, detector Ab4-AuNP
[28] = target: T4, recombinant SARS-CoV-2 spike S1 RBD …; experiment: sandwich dipstick, detector Ab4-AuNP
[29] = target: T5, UK variant RBD (R319-F541 with N501Y), …; experiment: sandwich dipstick, detector Ab4-AuNP
[30] = target: T1, BR P.1 variant RBD (R319-F541 with …); experiment: sandwich dipstick, detector Ab4-AuNP

Binder	percent blocking [1]	percent blocking [2]	percent blocking [3]	percent blocking [4]	percent blocking [5]	percent blocking [6]	IC50 [11]	IC50 [12]	IC50 [13]	IC50 [14]	percent blocking [15]	IC50 [16]	IC50 [17]	IC50 [18]	IC50 [19]	IC50 [20]	IC50 [21]	IC50 [22]	IC50 [23]	IC50 [24]	also measured
B1	90.8%	58.8%	90%	92.1%	5.3%	80.7%	0.91 µg/mL	0.63 µg/mL	1.08 µg/mL	0.7 µg/mL	94.7%	0.91 µg/mL	0.92 µg/mL	1.35 µg/mL	0.63 µg/mL	1.08 µg/mL	0.61 µg/mL	0.66 µg/mL	0.7 µg/mL	0.38 µg/mL	detection sensitivity [7]: 0.001 µg/mL; detection sensitivity [8]: 0.001 µg/mL; detection sensitivity [9]: 0.001 µg/mL; detection sensitivity [10]: 0.001 µg/mL; IC50 [25]: 2.33 µg/mL; percent blocking [26]: 94.7%
B2	42.7%	18.7%	40.5%	75.7%	1.5%	75.2%	0.7 µg/mL	0.69 µg/mL	0.95 µg/mL	0.69 µg/mL	94.1%	0.7 µg/mL	0.73 µg/mL	3.77 µg/mL	0.69 µg/mL	0.95 µg/mL	0.85 µg/mL	0.77 µg/mL	0.69 µg/mL	0.49 µg/mL	detection sensitivity [7]: 0.001 µg/mL; detection sensitivity [8]: 0.001 µg/mL; detection sensitivity [9]: 0.001 µg/mL; detection sensitivity [10]: 0.001 µg/mL; IC50 [25]: 2.57 µg/mL; percent blocking [26]: 94.1%
B3	69.3%	78.5%	8.7%	21.8%	72.5%	33.3%	24 µg/mL	3.27 µg/mL	27.6 µg/mL	44.8 µg/mL	90.2%	24 µg/mL	20.6 µg/mL	9.01 µg/mL	3.27 µg/mL	27.6 µg/mL	6.48 µg/mL	16.5 µg/mL	44.8 µg/mL	1.51 µg/mL	IC50 [25]: 33.2 µg/mL; detection sensitivity [27]: 0.01 µg/mL; detection sensitivity [28]: 0.01 µg/mL; detection sensitivity [29]: 0.01 µg/mL; detection sensitivity [30]: 0.01 µg/mL; percent blocking [26]: 90.2%
B4	96%	89.6%	95%	94.3%	96.5%	82.1%	1.83 µg/mL	1.43 µg/mL	1.35 µg/mL	1.4 µg/mL	94.6%	1.83 µg/mL	1.17 µg/mL	1.21 µg/mL	1.43 µg/mL	1.35 µg/mL	1.48 µg/mL	1.79 µg/mL	1.4 µg/mL	1.09 µg/mL	IC50 [25]: 1.61 µg/mL; detection sensitivity [27]: 0.01 µg/mL; detection sensitivity [28]: 0.01 µg/mL; detection sensitivity [29]: 0.01 µg/mL; detection sensitivity [30]: 0.01 µg/mL; percent blocking [26]: 94.6%
